What all share (test): cell-based or functional assay
Assay [1] addresses HIV-1 envelope glycoprotein (gp120) of virus VS049 (HIV-1).
The target in assay [2] is HIV-1 envelope glycoprotein (gp120) of virus 7552 (HIV-1).
In assay [3] the target is HIV-1 envelope glycoprotein (gp120) of virus VS030 (HIV-1).
For assay [4], the target named is HIV-1 envelope glycoprotein (gp120) of virus 7467 (HIV-1).
In assay [5] the target is HIV-1 envelope glycoprotein (gp120) of virus 92US657 (HIV-1).
In assay [6] the target is HIV-1 envelope glycoprotein (gp120) of virus 8106 (HIV-1).
For assay [7], the target named is HIV-1 envelope glycoprotein (gp120) of virus 7103 (HIV-1).
The target of assay [8] is HIV-1 envelope glycoprotein (gp120) of virus 92US727 (HIV-1).
In assay [9] the target is HIV-1 envelope glycoprotein (gp120) of virus 1489 (HIV-1).
In assay [10] the target is HIV-1 envelope glycoprotein (gp120) of virus 7015 (HIV-1).
In assay [11] the target is HIV-1 envelope glycoprotein (gp120) of virus VS017 (HIV-1).
The target in assay [12] is HIV-1 envelope glycoprotein (gp120) of virus 7051 (HIV-1).
Assay [13] addresses HIV-1 envelope glycoprotein (gp120) of virus VS042 (HIV-1).
In assay [14] the target is HIV-1 envelope glycoprotein (gp120) of virus 92US712 (HIV-1).
For assay [15], the target named is HIV-1 envelope glycoprotein (gp120) of virus VS046 (HIV-1).
The target of assay [16] is HIV-1 envelope glycoprotein (gp120) of virus 7714 (HIV-1).
For assay [17], the target named is HIV-1 envelope glycoprotein (gp120) of virus 1012 (HIV-1).
Assay [18] deals with HIV-1 envelope glycoprotein (gp120) of virus REJO (HIV-1).
Assay [19] addresses HIV-1 envelope glycoprotein (gp120) of virus VS001 (HIV-1).
Assay [20] has as its target HIV-1 envelope glycoprotein (gp120) of virus 8134 (HIV-1).
The target of assay [21] is HIV-1 envelope glycoprotein (gp120) of virus VS044 (HIV-1).
Assay [22] concerns the target HIV-1 envelope glycoprotein (gp120) of virus THRO (HIV-1).
Assay [23] deals with HIV-1 envelope glycoprotein (gp120) of virus 8110 (HIV-1).
In assay [24] the target is HIV-1 envelope glycoprotein (gp120) of virus 92HT593 (HIV-1).
The target of assay [25] is HIV-1 envelope glycoprotein (gp120) of virus VS039 (HIV-1).
The target of assay [26] is HIV-1 envelope glycoprotein (gp120) of virus VS043 (HIV-1).
The target in assay [27] is HIV-1 envelope glycoprotein (gp120) of virus 1003 (HIV-1).
Assay [28] concerns the target HIV-1 envelope glycoprotein (gp120) of virus 8318 (HIV-1).
For assay [29], the target named is HIV-1 envelope glycoprotein (gp120) of virus 8117 (HIV-1).
The target of assay [30] is HIV-1 envelope glycoprotein (gp120) of virus VS026 (HIV-1).
For assay [31], the target named is HIV-1 envelope glycoprotein (gp120) of virus CHO77 (HIV-1).
Assay [32] concerns the target HIV-1 envelope glycoprotein (gp120) of virus VS004 (HIV-1).
In assay [33] the target is HIV-1 envelope glycoprotein (gp120) of virus 1413 (HIV-1).
Assay [34] concerns the target HIV-1 envelope glycoprotein (gp120) of virus 7141 (HIV-1).
For assay [35], the target named is HIV-1 envelope glycoprotein (gp120) of virus 7576 (HIV-1).
Assay [36] addresses HIV-1 envelope glycoprotein (gp120) of virus 8176 (HIV-1).
Assay [37] has as its target HIV-1 envelope glycoprotein (gp120) of virus 8320 (HIV-1).
Assay [38] deals with HIV-1 envelope glycoprotein (gp120) of virus 7595 (HIV-1).
Assay [39] deals with HIV-1 envelope glycoprotein (gp120) of virus 302076 (HIV-1).
Assay [40] concerns the target HIV-1 envelope glycoprotein gp120 of virus 92US657 (HIV-1 (subtype B)).
Assay [41] deals with HIV-1 envelope glycoprotein gp120 of virus BaL (HIV-1 (subtype B)).
Assay [42] addresses HIV-1 envelope glycoprotein gp120 of virus CHO77 (HIV-1 (subtype B)).

B1: Antibody 1.1.119-1 (antibody, human IgG1, kappa, V domains shown)
VH: QVQLLQSGAAVTKPGASVRVSCEASGYNIRDYFIHWWRQAPGQGLQWVGWINPKTGQPNNPRQFQGRVSLTRHASWDFDTFSFYMDLKALRSDDTAVYFCARQRSDYWDFDVWGSGTQVTVSS
VL: DIQMTQSPSSLSASVGDRATITCQANGYLNWYQQRRGKAPKLLIYDGSKLERGVPSRFSGSRWGQEYTLTISSLQPEDIATYFCQVYEFFGPGTRLDLKR
For B1, the Virus Neutralization Potency in assay [1] was greater than 100 mg/L; in assay [2], greater than 80 mg/L; in [3], 4.96 mg/L; in [4], 0.19 mg/L; in [5] it was 0.3 mg/L; in [6] it was 1.44 mg/L. Further, the Virus Neutralization Potency in [7] worked out at 1.16 mg/L; in [8], 43.7 mg/L; in [9], 0.17 mg/L; in assay [10] it was 1.08 mg/L; in assay [11], 2.75 mg/L; in [12] it was 1.89 mg/L. In addition, the Virus Neutralization Potency in assay [13] was 2.19 mg/L; in assay [14], 0.03 mg/L; in assay [15] it was 0.03 mg/L; in assay [16], 1.93 mg/L; in assay [17] it was 1.06 mg/L; in assay [18] it was 0.03 mg/L. The Virus Neutralization Potency was 0.37 mg/L in assay [19]; 3.44 mg/L in [20]; 0.2 mg/L in assay [21]; 2.8 mg/L in assay [22]; 2.37 mg/L in [23]; 0.15 mg/L in assay [24]. Besides, the Virus Neutralization Potency was found to be 0.13 mg/L in [25]; 0.81 mg/L in [26]; 0.91 mg/L in assay [27]; 0.42 mg/L in [28]; 1.66 mg/L in assay [29]; 0.14 mg/L in assay [30]. The Virus Neutralization Potency came to 0.02 mg/L in [31]; 6.02 mg/L in assay [32]; 4.52 mg/L in [33]; 4.98 mg/L in assay [34]; 0.6 mg/L in assay [35]; 0.27 mg/L in assay [36]. For the same molecule, the figures for the Virus Neutralization Potency in assay [37], in assay [38] and in assay [39] were 1.47 mg/L, 3.07 mg/L and 0.08 mg/L, respectively.

B2: Antibody 1.36.35-1 (antibody, human IgG1, kappa, V domains shown)
VH: QVQLVQSGAEVKKPGASVRVSCKASGYNIRDYFMHWWRQAPGQGLQWVGWINPKTGQPNNPRQFQGRVTMTRHASWDFDTFSAYMDLSRLRSDDTATYFCARQRTDYWDFDVWGQGTMVTVSS
VL: DIQMTQSPSSLSASVGDRVTITCQANGYLNWYQQKPGKAPKLLIYDGSNLETGVPSRFSGSRWGQEYTLTISSLQPEDIATYFCQVYEFVGPGTNLDIKR
For the molecule B2, the Virus Neutralization Potency (IC50) in assay [40] was 5.37 mg/L; in assay [41], greater than 20 mg/L; in [42], 0.32 mg/L.

These data come from patent US20240034774A1.
